“And” between values parts separate entries of the source, which are not always exact repeats. Equal values may be shown once. Read-outs that look alike come from different tables or passages of the source.
Columns and labels:
She2p;She3p;Myo4p-C [1] = target: T1, She2p;She3p;Myo4p-C (Saccharomyces cerevisiae;Saccharomyces …, UniProt P36068;P38272;P32492 1-246;1-425;978-1471, ||); assay: EMSA
She3p;Myo4p-C = target: T2, She3p;Myo4p-C (Saccharomyces cerevisiae;Saccharomyces …, UniProt P38272;P32492 1-425;978-1471, |); assay: EMSA
T2 sequence 1: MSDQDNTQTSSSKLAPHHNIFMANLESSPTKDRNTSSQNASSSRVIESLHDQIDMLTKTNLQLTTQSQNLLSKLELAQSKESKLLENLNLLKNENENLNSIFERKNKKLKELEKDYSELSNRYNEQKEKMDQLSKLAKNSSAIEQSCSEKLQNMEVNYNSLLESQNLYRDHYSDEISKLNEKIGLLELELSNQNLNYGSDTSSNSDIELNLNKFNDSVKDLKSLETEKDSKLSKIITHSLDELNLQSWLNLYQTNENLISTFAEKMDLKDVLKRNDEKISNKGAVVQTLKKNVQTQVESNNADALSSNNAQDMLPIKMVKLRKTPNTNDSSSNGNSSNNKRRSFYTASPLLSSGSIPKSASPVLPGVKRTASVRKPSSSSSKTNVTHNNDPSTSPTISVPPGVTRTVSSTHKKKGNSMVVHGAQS
T2 sequence 2: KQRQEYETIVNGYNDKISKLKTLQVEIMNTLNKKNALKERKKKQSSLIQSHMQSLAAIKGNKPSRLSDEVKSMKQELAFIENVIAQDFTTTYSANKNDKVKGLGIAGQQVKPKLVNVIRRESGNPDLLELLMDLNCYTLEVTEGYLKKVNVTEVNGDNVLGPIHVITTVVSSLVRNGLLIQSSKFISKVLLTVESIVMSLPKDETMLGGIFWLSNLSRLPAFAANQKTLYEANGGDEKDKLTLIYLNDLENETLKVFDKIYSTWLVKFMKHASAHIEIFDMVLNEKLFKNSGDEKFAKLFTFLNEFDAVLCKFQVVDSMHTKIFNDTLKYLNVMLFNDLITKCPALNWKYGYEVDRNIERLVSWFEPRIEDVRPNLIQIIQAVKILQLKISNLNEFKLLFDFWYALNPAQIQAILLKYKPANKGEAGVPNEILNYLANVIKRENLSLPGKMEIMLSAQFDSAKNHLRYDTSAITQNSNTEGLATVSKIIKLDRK

[2] = target: T3, She2p;She3p;Myo4p full-length (Saccharomyces cerevisiae;Saccharomyces …, UniProt P36068;P38272;P32492 1-246;1-425;1-1471, ||); assay: single-molecule TIRFM
She2p;She3p;Myo4p-C [3] = target: T1, She2p;She3p;Myo4p-C; assay: SLS
She2p = She2p (Saccharomyces cerevisiae, UniProt P36068 1-246); assay: SLS
She2p;She3p;Myo4p-C [4] = target: T1, She2p;She3p;Myo4p-C; assay: SEC
[5] = target: T3, She2p;She3p;Myo4p full-length; assay: single-molecule TIRFM; remark: listed apart in the source
cross-linking = target: the molecule itself; assay: cross-linking
[6] = target: T4, Myo4p-C (amino acids 978–1,471) (S. cerevisiae, UniProt P32492 978-1471); assay: static light scattering coupled to SEC
T4 sequence: T2 sequence 2

[7] = target: T4, Myo4p-C (amino acids 978–1,471); assay: quantitative mass spectrometry with heavy isotope-labeled peptides
[8] = target: T4, Myo4p-C (amino acids 978–1,471); assay: as above; remark: listed apart in the source
[9] = target: T4, Myo4p-C (amino acids 978–1,471); assay: ITC

Sequence of She2p (P36068 whole entry): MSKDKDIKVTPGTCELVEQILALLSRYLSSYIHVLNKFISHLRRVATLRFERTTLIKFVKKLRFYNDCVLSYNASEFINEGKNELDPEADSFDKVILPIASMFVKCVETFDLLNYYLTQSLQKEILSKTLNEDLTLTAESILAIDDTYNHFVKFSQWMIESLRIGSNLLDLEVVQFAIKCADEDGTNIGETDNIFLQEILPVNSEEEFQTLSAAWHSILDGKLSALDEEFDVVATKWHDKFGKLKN
T1 sequence (P36068 whole entry, one chain of several): as the sequence (P36068 whole entry) above
T3 sequence (P36068 whole entry, one chain of several): as the sequence (P36068 whole entry) above

B1: ASH1-E3-77 (structured_RNA)
RNA: GGGAGAGAAUUGAUACAUGGAUAACUGAAUCUCUUUCAACUAAUAAGAGACAUUAUCACGAAACAAUUGUACAUUUCUCU
She2p;She3p;Myo4p-C [1]
  binding result: binds
She3p;Myo4p-C
  binding result: binds

B2: IST2 + 22-nt 3' overhang (mixed)
RNA: GGGAUGCUGGAGUGAAGAAUGUCACGAACAAUUCUAAGACAACCGAAUCCUCUUCCUCUUCAUCGGCGGCAAAGGAAAAACCAAAA
DNA: TTTTGGTTTTTCCTTTGCCGCC
[2]
  binding result: binds

B3: ASH1-E3-77-tRNA (structured_RNA)
RNA: GGCUACGUAGCUCAGUUGGUUAGAGCAGCGGCCGAGAGAAUUGAUACAUGGAUAACUGAAUCUCUUUCAACUAAUAAGAGACAUUAUCACGAAACAAUUGUACAUUUCUCUUGGCCGCGGGUCACAGGUUCGAAUCCCGUCGUAGCCACCA
She2p;She3p;Myo4p-C [3]
  binding result: binds
She2p
  binding result: binds

B4: IST2-tRNA (structured_RNA)
RNA: GGCUACGUAGCUCAGUUGGUUAGAGCAGCGGCCGGAUGCUGGAGUGAAGAAUGUCACGAACAAUUCUAAGACAACCGAAUCCUCUUCCUCUUCAUCUGGCCGCGGGUCACAGGUUCGAAUCCCGUCGUAGCCACCA
She2p
  binding result: binds

B5: ASH1-E3-51 (structured_RNA)
RNA: AUGGAUAACUGAAUCUCUUUCAACUAAUAAGAGACAUUAUCACGAAACAAU
She2p;She3p;Myo4p-C [4]
  binding result: binds
She2p
  binding result: binds

B6: ASH1-E3-77 + 3' overhang (mixed)
RNA: GGGAGAGAAUUGAUACAUGGAUAACUGAAUCUCUUUCAACUAAUAAGAGACAUUAUCACGAAACAAUUGUACAUUUCUCUCCUUGUCUGUGCUAAAUAAACUAC
DNA: GTAGTTTATTTAGCACAGACAAGG
[5]
  binding result: binds

B7: She3p, full-length (natural protein)
chain: T2 sequence 1
cross-linking
  stoichiometry N: 2
[6]
  stoichiometry N: 2 She3p/Myo4p-C
[7]
  stoichiometry N: 2.12 She3p:Myo4p-C and 2.23 She3p:Myo4p-C
[8]
  stoichiometry N: 2.56 She3p:Myo4p-C
[9]
  stoichiometry N: 1.93 She3p:Myo4p

B8: She3p N-terminal fragment (amino acids 1–234) (domain or fragment)
chain: MSDQDNTQTSSSKLAPHHNIFMANLESSPTKDRNTSSQNASSSRVIESLHDQIDMLTKTNLQLTTQSQNLLSKLELAQSKESKLLENLNLLKNENENLNSIFERKNKKLKELEKDYSELSNRYNEQKEKMDQLSKLAKNSSAIEQSCSEKLQNMEVNYNSLLESQNLYRDHYSDEISKLNEKIGLLELELSNQNLNYGSDTSSNSDIELNLNKFNDSVKDLKSLETEKDSKLSK
cross-linking
  binding result: binds
